{
  "source": "patent US20200018762",
  "key": {"[1]": {"tested_on": "biotinylated human histone H2B derived peptide KRSRKESYSVYVYKVL"}, "[2]": {"tested_on": "biotinylated H4-derived unphosphorylated peptide TVTAMDVVYALKRQGRT"}, "[3]": {"tested_on": "purified human H2A recombinant protein (NEB)"}, "[4]": {"tested_on": "H2B peptide with a Tyr37-to-Phe mutation (SRKESFSVYVYK)"}, "[5]": {"target": "purified human H4 recombinant protein (NEB) (UniProt P62805)"}, "[6]": {"target": "purified human H2B recombinant protein (NEB) (UniProt P62807)"}, "[7]": {"tested_on": "H2B peptide spanning Tyr37 (Tyr37-H2B; SRKESYSVYVYK)"}, "[8]": {"target": "purified human H3 recombinant protein (NEB) (UniProt P68431)"}, "FLAG-tagged H2B": {"target": "FLAG-tagged H2B (UniProt P62807)"}, "[9]": {"target": "FLAG-tagged Y37F mutant-H2B (UniProt P62807)"}},
  "data": [
    {"substance": "purified WEE1 protein (Examples 5 and 7)", "values": [
      {"measurement": "Peptide Immunosandwich Assay (kinase reaction on immobilized peptide, detection with pY37-H2B antibodies, OD 450 nm)", "setting": "[1]", "value": "Purified WEE1 exhibited robust H2B Tyr37-phosphorylation and a significant decrease in pY37-H2B levels was observed upon incubation with 5 uM of MK-1775 (FIG. 34)"},
      {"measurement": "in vitro kinase assay on immobilized peptide, ELISA with pY88-H4 antibodies", "setting": "[2]", "value": "Incubation of H4 peptide with WEE1 and Ack1 protein resulted in robust H4 Tyr88-phosphorylation"}
    ]},
    {"substance": "recombinant GST-WEE1 protein (Invitrogen)", "values": [
      {"measurement": "in vitro kinase assay, immunoblot with pTyr37-H2B antibody", "setting": "[3]", "value": "WEE1 specifically phosphorylated H2B and failed to phosphorylate other three core histones, H2A, H3 and H4 (FIG. 13E)"},
      {"measurement": "in vitro kinase reaction with peptide, dot blot with pTyr37-H2B antibody", "setting": "[4]", "value": "Y37F mutant peptide was not phosphorylated"},
      {"measurement": "in vitro kinase assay, immunoblot with pTyr37-H2B antibody", "setting": "[5]", "value": "WEE1 specifically phosphorylated H2B and failed to phosphorylate other three core histones, H2A, H3 and H4 (FIG. 13E)"},
      {"measurement": "in vitro kinase assay, immunoblot with pTyr37-H2B antibody", "setting": "[6]", "value": "When purified WEE1 and H2B were incubated, H2B was Tyr37-phosphorylated, however, WEE1 inhibitor abrogated H2B pTyr37-phosphorylation (FIG. 13D)"},
      {"measurement": "in vitro kinase reaction with peptide, dot blot with pTyr37-H2B antibody", "setting": "[7]", "value": "WEE1 phosphorylated H2B peptide"},
      {"measurement": "in vitro kinase assay, immunoblot with pTyr37-H2B antibody", "setting": "[8]", "value": "WEE1 specifically phosphorylated H2B and failed to phosphorylate other three core histones, H2A, H3 and H4 (FIG. 13E)"}
    ]},
    {"substance": "Myc-tagged WEE1 (WT)", "values": [
      {"measurement": "coexpression in MEFs, immunoprecipitation with pTyr37-H2B antibodies, FLAG immunoblot", "setting": "FLAG-tagged H2B", "value": "the WT-WEE1 specifically phosphorylated H2B"},
      {"measurement": "coexpression in MEFs, immunoprecipitation with pTyr37-H2B antibodies, FLAG immunoblot", "setting": "[9]", "value": "failed to phosphorylate Y37F mutant (FIG. 13G)"}
    ]}
  ]
}
